The Immune Epitope Database (IEDB)

Legend:
Test in all cases: IEDB peptide-MHC binding, purified MHC/competitive/fluorescence; filed as Kd, often an IC50 or EC50 that approximates it; ≥ and ≤ were set here for values at or beyond the usual limits of such assays
Details in all cases: source organism: Plasmodium falciparum
HLA-A*02:01 = target: HLA-A*02:01
HLA-A*24:02 = target: HLA-A*24:02
HLA-A*01:01 = target: HLA-A*01:01
HLA-B*44:02 = target: HLA-B*44:02
HLA-A*03:01 = target: HLA-A*03:01
HLA-B*07:02 = target: HLA-B*07:02

Question: CKMEKCSSV was tested. Which Kd (HLA-A*02:01) did it give?
Answer: The Kd was ≥ 100 µM.

Question: Which Kd (HLA-A*24:02) does the source give for CKMEKCSSVF here?
Answer: The Kd was ≥ 250 µM.

Question: CSSVFNVVN was tested. Which Kd (HLA-A*01:01) did it give?
Answer: The Kd was ≥ 82.5 µM.

Question: Which Kd (HLA-B*44:02) does the source give for DELDYANDI here?
Answer: The Kd was ≥ 277 µM.

Question: How did the Kd (HLA-B*44:02) turn out when DENANANNA was run?
Answer: The Kd was ≥ 896 µM.

Question: ELDYENDIEK was tested. Which Kd (HLA-A*01:01) did it give?
Answer: Its Kd is ≥ 100 µM.

Question: EWSPCSVTCG was tested. Which Kd (HLA-A*24:02) did it give?
Answer: The Kd was ≥ 685 µM.

Question: Which Kd (HLA-A*02:01) does the source give for HIKEYLNKI here?
Answer: Its Kd is ≥ 259 µM.

Question: How did the Kd (HLA-A*02:01) turn out when HITEYLKKI was run?
Answer: Its Kd is ≥ 148 µM.

Question: With IEKKICKMEK as the sequence, how does the Kd (HLA-A*03:01) read?
Answer: Its Kd is ≥ 100 µM.

Question: With IEQYLKKIQY as the sequence, how does the Kd (HLA-A*01:01) read?
Answer: Its Kd is ≥ 100 µM.

Question: And the Kd (HLA-B*44:02)?
Answer: Its Kd is ≥ 157 µM.

Question: What does the source list for IQNSLSTEW?
Answer: Kd (HLA-A*24:02): ≥ 21.3 µM; Kd (HLA-B*44:02): ≥ 136 µM

Question: With KDELDYENDI as the sequence, how does the Kd (HLA-B*44:02) read?
Answer: The Kd was ≥ 100 µM.

Question: With KEYLNKIQNS as the sequence, how does the Kd (HLA-B*44:02) read?
Answer: The Kd was ≥ 100 µM.

Question: What does the source list for KMEKCSSVF?
Answer: Kd (HLA-A*01:01): ≥ 100 µM; Kd (HLA-B*07:02): ≥ 100 µM

Question: For KPGSADKPKD, which Kd (HLA-B*07:02) is on record?
Answer: The Kd was ≥ 100 µM.

Question: KPGSANKPKD was tested. Which Kd (HLA-B*07:02) did it give?
Answer: The Kd was ≥ 100 µM.

Question: LDYANDIEK was tested. Which Kd (HLA-A*03:01) did it give?
Answer: Its Kd is ≥ 100 µM.

Question: LIMVLSFLF was tested. Which Kd (HLA-A*24:02) did it give?
Answer: The Kd was 19.3 µM.

Question: Which Kd (HLA-A*01:01) does the source give for LSTEWSPCS here?
Answer: The Kd was ≥ 100 µM.

Question: With MEKCSSVFN as the sequence, how does the Kd (HLA-B*44:02) read?
Answer: Its Kd is ≥ 143 µM.

Question: Which results are given for MPNDPNRNV?
Answer: Kd (HLA-B*07:02): ≥ 511 µM; Kd (HLA-B*44:02): ≥ 100 µM

Question: For NEEPSDKHI, which Kd (HLA-B*44:02) is on record?
Answer: The Kd was ≥ 100 µM.

Question: What does the source list for NEEPSDKHIK?
Answer: Kd (HLA-A*01:01): ≥ 100 µM; Kd (HLA-B*44:02): ≥ 100 µM

Question: How did the Kd (HLA-B*44:02) turn out when NEEPSDQHI was run?
Answer: The Kd was ≥ 100 µM.

Question: Which Kd (HLA-B*07:02) does the source give for NPDPNANPNV here?
Answer: Its Kd is ≥ 100 µM.

Question: For NPNANPNAN, which Kd (HLA-B*07:02) is on record?
Answer: The Kd was ≥ 100 µM.

Question: Which Kd (HLA-B*07:02) does the source give for NPNANPNANP here?
Answer: The Kd was ≥ 100 µM.

Question: How did the Kd (HLA-B*07:02) turn out when NPNVDPNANP was run?
Answer: The Kd was ≥ 100 µM.

Question: With NSSIGLIMV as the sequence, how does the Kd (HLA-A*01:01) read?
Answer: Its Kd is ≥ 215 µM.

Question: For NVDENANAN, which Kd (HLA-A*01:01) is on record?
Answer: Its Kd is ≥ 100 µM.

Question: NVDENANANN was tested. Which Kd (HLA-A*01:01) did it give?
Answer: Its Kd is ≥ 667 µM.

Question: For NVDPNANPNV, which Kd (HLA-A*01:01) is on record?
Answer: Its Kd is ≥ 100 µM.

Question: Which Kd (HLA-A*01:01) does the source give for PSDKHIEQY here?
Answer: The Kd was 2 µM.

Question: Which Kd (HLA-A*01:01) does the source give for PSDKHIKEY here?
Answer: Its Kd is ≥ 24.8 µM.

Question: PSDKHITEY was tested. Which Kd (HLA-A*01:01) did it give?
Answer: Its Kd is 2.67 µM.

Question: QLDYENDIEK was tested. Which Kd (HLA-A*01:01) did it give?
Answer: The Kd was ≥ 726 µM.

Question: And the Kd (HLA-A*03:01)?
Answer: Its Kd is ≥ 100 µM.

Question: How did the Kd (HLA-B*07:02) turn out when QVRIKPGSA was run?
Answer: Its Kd is ≥ 134 µM.

Question: With RIKPGSADK as the sequence, how does the Kd (HLA-A*03:01) read?
Answer: The Kd was 17.7 µM.

Question: For RIKPGSANK, which Kd (HLA-A*03:01) is on record?
Answer: Its Kd is ≥ 21.3 µM.

Question: How did the Kd (HLA-A*01:01) turn out when SADKPKDQLD was run?
Answer: The Kd was 8.97 µM.

Question: With SPCSVTCGNG as the sequence, how does the Kd (HLA-B*07:02) read?
Answer: The Kd was ≥ 100 µM.

Question: With STEWSPCSV as the sequence, how does the Kd (HLA-A*01:01) read?
Answer: The Kd was 3.18 µM.

Question: What does the source list for SVFNVVNSSI?
Answer: Kd (HLA-A*02:01): ≥ 342 µM; Kd (HLA-A*03:01): ≥ 100 µM; Kd (HLA-B*07:02): ≥ 100 µM

Question: With SVTCGNGIQV as the sequence, how does the Kd (HLA-A*02:01) read?
Answer: Its Kd is ≥ 489 µM.

Question: What about the Kd (HLA-B*07:02) of the same sequence?
Answer: The Kd was ≥ 100 µM.

Question: Which Kd (HLA-B*44:02) does the source give for TEWSPCSVT here?
Answer: The Kd was ≥ 100 µM.

Question: For TEYLKKIQN, which Kd (HLA-B*44:02) is on record?
Answer: The Kd was ≥ 100 µM.

Question: VTCGNGIQV was tested. Which Kd (HLA-A*01:01) did it give?
Answer: The Kd was ≥ 100 µM.

Question: What about the Kd (HLA-A*03:01) of the same sequence?
Answer: The Kd was ≥ 100 µM.

Question: YLKIIQNSL was tested. Which Kd (HLA-A*02:01) did it give?
Answer: The Kd was 4.88 µM.

Question: YLKKIQNSL was tested. Which Kd (HLA-A*02:01) did it give?
Answer: Its Kd is 2.18 µM.

Question: What about the Kd (HLA-A*24:02) of the same sequence?
Answer: Its Kd is 11.2 µM.

Question: And the Kd (HLA-B*07:02)?
Answer: The Kd was 9.2 µM.

Question: With YLKKIQYSL as the sequence, how does the Kd (HLA-A*02:01) read?
Answer: Its Kd is 2.58 µM.
